# Assay results: patent US20200239555A1 (STATEN BIOTECHNOLOGY B V, published 2020)
# Legend:
# [1] = target: T1, biotinylated native human ApoC3 (human, UniProt P02656 21-99, biotinylated (site not stated)); assay: SPR, IgG1 over biotinylated ApoC3 on SA chip, pH 7.4
# T1 construct: also called biotinylated human ApoC3
# Description: (§1) Biotinylated native human ApoC3 was captured on a streptavidin coated SPR chip (GE Healthcare, cat. nr. BR100032) at pH 7.4, in accordance with the method provided by Biacore, by injection of 20 μl 10 μg/ml biotinylated native human ApoC3 reaching the surface density of approximately 500 RU. 60 μL of test antibody in 1-50 nM range diluted in HBS-EP buffer (GE, cat # BR-1008-26; 0.010 M HEPES, 0.150M NaCl, 3 mM EDTA, 0.05% (v/v) surfactant P20, pH 7.4) was injected and passed through the flow cells at a flow rate of 30 μl/min, followed by an off-rate wash at pH7.4 for 5 min. After the dissociation, the flow cell surfaces were regenerated by injecting 10 μl of 10 mM NaOH/1 M NaCl and 10 μl of 10 mM glycine at pH1.5. The assay was repeated at pH5.5 using the same general protocol, where the running and sample dilution buffer was replaced by a HBS-EP buffer supplemented with citrate buffer to 10 mM final concentration and pH adjusted to 5.5.
# (§2) The resulting sensorgrams were analyzed using the BIAevaluation 4.1 software using Langmuir 1:1 binding model to derive binding kinetics. Data was zero adjusted and the reference cell sensorgrams were subtracted. Sensorgrams were double referenced to no-analyte blank assay. Fitted parameters were considered not applicable if off-rate values were below the equipment's detection limit of kd: 1×10⁻⁶ 1/s.
# [2] = target: T2, native human ApoC3 (human, UniProt P02656 21-99); assay: SPR, ApoC3 over captured IgG1
# T2 construct: also called nhuApoC3; native huApoC3
# Description: (§3) An inverted SPR assay was designed in which a test antibody was captured on an SPR chip, human ApoC3 protein was injected, and binding of ApoC3 to the antibody was measured. […] The immobilization was performed in accordance with the method provided by Biacore/GE using the NHS/EDC kit (Biacore AB, Cat.nr. BR-1000-50): after activation of the chip, a solution of 30 μg/ml of anti-human Fcγ antibody in 10 mM acetate buffer with pH of 5.0 was prepared and injected until the surface density reached approximately 10000 RU. The analytical cycle comprised the following steps:
# (§4) The resulting sensorgrams were analyzed using the BIAevaluation 4.1 software using Langmuir 1:1 binding model to derive binding kinetics. Data was zero adjusted, the reference cell sensorgrams were subtracted and the no analyte blank assay was used for double referencing the sensorgrams corresponding to the analyte injections. The dissociation and association phase sensorgrams were fitted separately for the 4 different concentration curves. Sensorgrams were excluded from the fitting if maximum RU values reached were below the detection limit of the equipment (<5 RU), Biacore 3000 (Biacore AB).
# [3] = target: T2, native human ApoC3; assay: SPR, ApoC3 over captured IgG1, pH 5.5
# Description: as §3, §4
# [4] = target: T1, biotinylated native human ApoC3; assay: SPR, IgG1 over biotinylated ApoC3 on SA chip
# Description: as §1, §2
# [5] = target: T2, native human ApoC3; assay: SPR, ApoC3 over captured IgG1, pH 7.4
# Description: as §3, §4
# [6] = target: T1, biotinylated native human ApoC3; assay: SPR, IgG1 over biotinylated ApoC3 on SA chip, pH 5.5
# Description: as §1, §2
# T1 sequence (P02656 21-99): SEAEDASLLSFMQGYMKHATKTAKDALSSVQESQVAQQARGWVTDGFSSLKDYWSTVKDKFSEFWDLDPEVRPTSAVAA
# T2 sequence (P02656 21-99): as above
Ka [1] [M⁻¹],Kd [1] [nM],koff [1] [s⁻¹],kon [1] [M⁻¹ s⁻¹],KD (nM) pH5.5/pH7.4 [2],Ka [3] [M⁻¹],koff [3] [s⁻¹],kon [3] [M⁻¹ s⁻¹],KD pH5.5/KD pH7.4 [4],Ka [5] [M⁻¹],koff [5] [s⁻¹],kon [5] [M⁻¹ s⁻¹],Ka [6] [M⁻¹],Kd [6] [nM],koff [6] [s⁻¹],kon [6] [M⁻¹ s⁻¹],Kd [5] [nM],Kd [3] [nM],Binder
6.76e+09,0.15,3.51e-05,237000,2.25,2.45e+06,0.0376,92000,2.33,5.51e+06,0.00637,35100,2.9e+09,0.35,0.000145,419000,–,–,"mAb5 (antibody, IgG1, V domains shown, Produced as full length IgG1 (kappa) in ExpiCHO-S cells; also called humanized anti-ApoC3 antibody mAb5) VH: QLVESGGGLVQPGGSLRLSCAASGFTFGTYSMRWVRQAPGKGLEWVSSIHTEGGGTAYRDSVKGRFTISRDNAKNTLYLQMNSLRAEDTAVYYCVIAGYSDWGQGTLVTVSS VL: DIVMTQSPLSLPVTPGESASISCKTSQGLVHSDGKTYFYWFLQKPGQSPQQLIYQVSNRASGVPDRFTGSGSGTDFTLKISRVKAEDAGVYYCAHGTYYPHTFGQGTRLEIK"
1.81e+10,0.06,1.35e-05,245000,2.82,3.44e+06,0.0281,96600,5.13,9.69e+06,0.0046,44500,3.54e+09,0.28,0.000123,435000,–,–,"mAb2 (antibody, IgG1, V domains shown, Produced as full length IgG1 (kappa) in ExpiCHO-S cells; also called humanized anti-ApoC3 antibody mAb2) VH: QLVESGGGLVQPGGSLRLSCAASGFTFGTYSMRWVRQVPGKGLEWVSSIHTEGGGTAYRDSVKGRFTISRDNAKNTLYLQMNSLRAEDTAIYYCVIAGYSDWGQGTLVTVSS VL: DIVMTQSPLSLPVTPGESASISCKTSQGLVHSDGKTYFYWFLQKPGQSPQQLIYQVSNRASGVPDRFSGSGSGTDFTLKISRVKAEDAGVYYCAHGTYYPHTFGQGTRLEIK"
2.15e+11,–,1.13e-06,243000,3.48,2.32e+06,0.0359,83100,–,8.06e+06,0.00565,45500,2.67e+09,0.37,0.000156,416000,–,–,"mAb4 (antibody, IgG1, V domains shown, Produced as full length IgG1 (kappa) in ExpiCHO-S cells; also called humanized anti-ApoC3 antibody mAb4) VH: QLVESGGGLVQPGGSLRLSCAASGFTFGTYSMRWVRQAPGKGLEWVSSIHTEGGGTAYRDSVKGRFTISRDNAKNTLYLQMNSLRAEDTAIYYCVIAGYSDWGQGTLVTVSS VL: DIVMTQSPLSLPVTPGESASISCKTSQGLVHSDGKTYFYWFLQKPGQSPQQLIYQVSNRASGVPDRFSGSGSGTDFTLKISRVKAEDAGVYYCAHGTYYPHTFGQGTRLEIK"
7.49e+08,–,0.000838,628000,–,–,–,–,6.48,1.97e+06,0.0539,106000,1.16e+08,–,0.0155,1.79e+06,–,–,"mAb18 (antibody, IgG1, V domains shown, Produced as full length IgG1 (kappa) in ExpiCHO-S cells; also called humanized anti-ApoC3 antibody mAb18) VH: QLVESGGGLVQPGGSLRLSCAASGFTFSTYSMRWVRQAPGKGLEWVSSIHTEAGGTAYRDSVKGRFTISRDNAKNTLYLQMNNLRAEDTAVYYCVIAGYSDWGQGTLVTVSS VL: DIVMTQSPLSLPVTPGEPASISCKTSQGLVHSGGKTYFYWFLQKPGQSPQQLIYQVSNRASGVPDRFTGSGSGTDFTLKISRVEAEDAGVYYCAHGTYYPHTFGQGTRLEIK"
1.71e+09,0.59,0.000487,831000,–,–,–,–,16.1,747000,0.0737,55100,1.06e+08,–,0.0214,2.27e+06,–,–,"mAb20 (antibody, IgG1, V domains shown, Produced as full length IgG1 (kappa) in ExpiCHO-S cells; also called humanized anti-ApoC3 antibody mAb20) VH: QLVESGGGLVQPGGSLRLSCAASGFTFSTYSMRWVRQAPGKGLEWVSSIHTDAGGTAYRDSVKGRFTISRDNAKNTLYLQMNNLRPEDTAVYYCVIAGYSDWGQGTLVTVSS VL: DIVMTQSPGSLSVTPGEPASISCKTSQGLVHSGGKTYFYWFLQKPGQSPQQLIYQVSNRASGVPDRFTGSGSGTDFTLKISGVEAEDAGVYYCAHGTYYPHTFGQGTRLEIK"
9.11e+09,–,2.33e-05,212000,1.86,3.09e+06,0.033,102000,3.19,5.75e+06,0.00582,33400,2.85e+09,0.35,0.000127,363000,–,–,"mAb3 (antibody, IgG1, V domains shown, Produced as full length IgG1 (kappa) in ExpiCHO-S cells; also called humanized anti-ApoC3 antibody mAb3) VH: QLVESGGGLVQPGGSLRLSCAASGFTFGTYSMRWVRQAPGKGLEWVSSIHTEGGGTAYRDSVKGRFTISRDNAKNTLYLQMNSLRAEDTAIYYCVIAGYSDWGQGTLVTVSS VL: DIVMTQSPLSLPVTPGESASISCKTSQGLVHSDGKTYFYWFLQKPGQSPQQLIYQVSNRASGVPDRFTGSGSGTDFTLKISRVKAEDAGVYYCAHGTYYPHTFGQGTRLEIK"
1.46e+09,0.69,0.000375,546000,–,–,–,–,10.8,1.68e+06,0.0466,78100,1.34e+08,–,0.0121,1.63e+06,–,–,"mAb16 (antibody, IgG1, V domains shown, Produced as full length IgG1 (kappa) in ExpiCHO-S cells; also called humanized anti-ApoC3 antibody mAb16) VH: QLVESGGGLVQPGGSLRLSCAASGFTFGTYSMRWVRQAPGKGLEWVSSIHTEAGGTAYRDSVKGRFTISRDNAKNTLYLQMNNLKAEDTAIYYCVIAGYSDWGQGTQVTVSS VL: DIVMTQSPLSLPVTPGESASISCKTSQGLVHSGGKTYFYWFLQKPGQSPQQLIYQVSNRASGVPDRFTGSGSGTDFTLKISRVEAEDAGVYYCAHGTYYPHTFGSGTRLEIK"
2.2e+10,0.05,1.18e-05,261000,3.42,3.95e+06,0.0257,101000,5.22,1.35e+07,0.00426,57600,4.23e+09,0.24,0.000104,440000,74,–,"mAb1 (antibody, IgG1, V domains shown, Produced as full length IgG1 (kappa) in ExpiCHO-S cells; also called humanized anti-ApoC3 antibody mAb1) VH: QLVESGGGLVQPGGSLRLSCAASGFTFGTYSMRWVRQVPGKGLEWVSSIHTEGGGTAYRDSVKGRFTISRDNAKNTLYLQMNSLRAEDTAIYYCVIAGYSDWGQGTLVTVSS VL: DIVMTQSPLSLPVTPGESASISCKTSQGLVHSDGKTYFYWFLQKPGQSPQQLIYQVSNRASGVPDRFTGSGSGTDFTLKISRVKAEDAGVYYCAHGTYYPHTFGQGTRLEIK"
1.67e+10,0.06,1.33e-05,222000,5.22,1.16e+06,0.0802,93100,5.79,6.08e+06,0.00672,40900,2.88e+09,0.35,0.000148,425000,–,–,"mAb6 (antibody, IgG1, V domains shown, Produced as full length IgG1 (kappa) in ExpiCHO-S cells; also called humanized anti-ApoC3 antibody mAb6) VH: QLVESGGGLVQPGGSLRLSCAASGFTFGTYSMRWVRQAPGKGLEWVSSIHTEGGGTAYRDSVKGRFTISRDNAKNTLYLQMNSLRAEDTAVYYCVIAGYSDWGQGTLVTVSS VL: DIVMTQSPLSLPVTPGESASISCKTSQGLVHSDGKTYFYWFLQKPGQSPQQLIYQVSNRASGVPDRFSGSGSGTDFTLKISRVKAEDAGVYYCAHGTYYPHTFGQGTRLEIK"
1.86e+11,–,2.77e-06,516000,2.48,1.16e+07,0.0116,134000,–,2.88e+07,0.00378,109000,2.83e+09,0.35,0.000249,705000,35,86,"mAb15 (antibody, IgG1, V domains shown, Produced as full length IgG1 (kappa) in ExpiCHO-S cells; also called humanized anti-ApoC3 antibody mAb15) VH: QLVESGGGLVQPGGSLRLSCAASGFTFGTYSMRWVRQAPGKGLEWVSSIHTEAGGTAYRDSVKGRFTISRDNAKNTLYLQMNNLKAEDTAIYYCVIAGYSDWGQGTQVTVSS VL: DIVMTQSPLSLPVTPGESASISCKTSQGLVHSGGKTYFYWFLQKPGQSPQQLIYQVSNRASGVPDRFTGSGSGTDFTLKISRVEAEDAGVYYCAQGTYYPHTFGSGTRLEIK"
